This series addresses T1, ILF3-GFP full-length (UniProt Q12906 1-894).
T1 sequence: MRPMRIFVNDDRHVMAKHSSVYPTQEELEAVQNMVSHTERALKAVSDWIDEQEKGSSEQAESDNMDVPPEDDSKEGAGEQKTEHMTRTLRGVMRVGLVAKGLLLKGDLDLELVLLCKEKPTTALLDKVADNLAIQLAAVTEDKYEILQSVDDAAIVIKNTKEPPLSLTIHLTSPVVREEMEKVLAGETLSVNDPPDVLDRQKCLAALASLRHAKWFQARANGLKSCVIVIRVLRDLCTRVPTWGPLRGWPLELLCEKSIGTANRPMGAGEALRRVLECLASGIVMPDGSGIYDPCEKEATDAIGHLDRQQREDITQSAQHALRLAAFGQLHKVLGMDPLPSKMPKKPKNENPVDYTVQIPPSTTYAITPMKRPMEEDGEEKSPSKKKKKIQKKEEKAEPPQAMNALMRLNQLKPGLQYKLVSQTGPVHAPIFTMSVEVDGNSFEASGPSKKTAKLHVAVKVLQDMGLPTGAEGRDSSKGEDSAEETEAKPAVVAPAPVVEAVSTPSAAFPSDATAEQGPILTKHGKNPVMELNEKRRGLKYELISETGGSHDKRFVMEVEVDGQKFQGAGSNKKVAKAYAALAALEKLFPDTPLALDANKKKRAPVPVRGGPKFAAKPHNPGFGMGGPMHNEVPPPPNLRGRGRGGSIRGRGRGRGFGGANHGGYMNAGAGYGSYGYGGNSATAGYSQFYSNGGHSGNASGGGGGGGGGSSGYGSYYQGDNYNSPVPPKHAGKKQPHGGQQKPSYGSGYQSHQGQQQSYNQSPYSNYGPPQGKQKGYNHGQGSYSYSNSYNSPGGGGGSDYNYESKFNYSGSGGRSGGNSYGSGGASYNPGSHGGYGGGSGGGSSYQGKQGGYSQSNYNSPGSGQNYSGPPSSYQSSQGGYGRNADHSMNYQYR
In words: MST; MST: 50 nM His-ILF3-GFP, oligo 0.4 nM-5 uM, 25 mM Tris-HCl pH 7.5, 100 mM NaCl, room temperature. The note with it: protein: recombinant, tags: His, blunt.

One molecule from PMC11214836, “ILF3 safeguards telomeres from aberrant homologous recombination as a telomeric R-loop reader” can be followed below.

B1: mutTERRA RNA:DNA hybrid (UUAGCC) (DNA:RNA)
RNA: AGGGUUAGCCUUAGCCUUAGCC
DNA: GGCTAAGGCTAAGGCTAACCCT
For B1, the binding result is on record as “no binding”.
